# According to publication PMC7861550:
# B1: unnamed (parent)
# chain: MDIDPYKEFGATVELLSFLPSDFFPSVRDLLDTASALYREALESPEHCSPHHTALRQAILCWGELMTLATWVGVNLEDPASRDLVVSYVNTNMGLKFRQLLWFHISCLTFGRETVIEYLVSFGVWIRTPPAYRPPNAPILSTLPETTVVRRRGRSPRRRTPSPRRRRSQSPRRRRSQSRESQC
# Variants of: B1
# Assay: capsid assembly (Ca assem)
# Conditions: with partner chain of the complex shown
row,Variant,ratio to parent
1,chain 1 L140A,1.32
2,chain 1 T146A T147A,1.08
3,chain 1 S141A,1.03
4,chain 1 S141R,1.16
5,chain 1 S141D,1.11
6,chain 1 E145D,1.05
7,chain 1 L143I,0.97
8,chain 1 L143A,1.05
9,chain 1 S141T V148I V149I,0.98
10,chain 1 T146D T147D,1.06
